Measured values published in patent US10618964B2, “Nanobody against IL-6R” (Ablynx N.V., dated 2020).
Changes are numbered by the printed parent chain.

Experiments:
[1] = biological target: T1, soluble IL-6R in cynomolgous plasma (cynomolgus monkey, UniProt A0A2K5WN54); assay: ELISA 2, periplasmic extract; competitor IL-6; cyno plasma
[2] = biological target: T2, native soluble IL-6R in human plasma (human), P08887; assay: ELISA 1, periplasmic extract; competitor IL-6; human plasma; conditions: remark: other sources report otherwise
T2 chain: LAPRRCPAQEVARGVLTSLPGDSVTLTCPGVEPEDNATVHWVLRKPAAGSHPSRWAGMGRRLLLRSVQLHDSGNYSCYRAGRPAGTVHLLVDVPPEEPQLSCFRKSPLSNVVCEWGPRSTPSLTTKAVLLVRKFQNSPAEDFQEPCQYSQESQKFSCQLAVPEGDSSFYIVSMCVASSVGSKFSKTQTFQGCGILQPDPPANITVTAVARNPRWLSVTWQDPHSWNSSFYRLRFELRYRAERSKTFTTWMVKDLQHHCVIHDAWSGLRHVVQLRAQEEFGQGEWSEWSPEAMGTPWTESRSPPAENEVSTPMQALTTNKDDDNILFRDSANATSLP

[3] = biological target: T2, native soluble IL-6R in human plasma …; assay: ELISA 3, periplasmic extract; competitor BN-12; human plasma; conditions: remark: other sources report otherwise
IL-6R on TF-1 cells = IL-6R on TF-1 cells (Homo sapiens (Human), UniProt P08887); assay: cell-based or functional assay
[4] = biological target: T3, native soluble IL-6R in human plasma (human, UniProt P08887); assay: ELISA 1, periplasmic extract; competitor IL-6; human plasma
[5] = biological target: T3, native soluble IL-6R in human plasma; assay: ELISA 3, periplasmic extract; competitor BN-12; human plasma
[6] = biological target: T1, soluble IL-6R in cynomolgous plasma; assay: plasma potency ELISA, purified Nanobody; competitor IL-6; cyno plasma
Protocol: (§1) In this ELISA, plasma was used as a source of native soluble IL-6R. By this assay, we aimed to confirm the alphascreen results and to get a view on the cross-reactivity of the clones towards cynomolgous IL-6R. Human plasma (ELISA 1 and ELISA 3) or cynomolgous plasma (ELISA 2) were pre-incubated with a dilution of the periplasmic extract of the clones together with human IL-6 (50 ng/mL). Subsequently, plasma soluble IL-6R was captured on a B-N12 coated plate and bound IL-6 was detected using anti-IL-6 antibody BAF206 and streptavidin-HRP (ELISA 1 and ELISA 2). The ELISA signal dropped when the Nanobody clone could compete with IL-6 for binding to soluble IL-6R. ELISA 3 was a parallel ELISA in which the detection antibody was replaced by anti-IL-6R antibody BAF227 to exclude false positive competitors, which actually compete with B-N12 (e.g. family 2). Depicted in Table C-5 is the ratio of the OD450 value of the test sample versus the blank OD450 (mock sample). Clones were ordered based on ELISA 1 data.
(§2) A potency ELISA was done with the purified Nanobodies as described in Example 9. Here, different dilutions of each purified Nanobody were incubated with human (ELISA1) and cynomolgous plasma (ELISA2). IC50 values are depicted in Table C-9.

[7] = biological target: T3, native soluble IL-6R in human plasma; assay: plasma potency ELISA, purified Nanobody; competitor IL-6; human plasma
Protocol: as §1, §2

[8] = biological target: cyno IL-6R on CHO-K1 cells (clone CyIL6R 405) (cynomolgus monkey; human-rhesus); assay: FMAT competition; competitor Reference IgG-A647; CHO cells with cyno IL-6R
[9] = biological target: human IL-6R on CHO-K1 cells (clone HuIL6R 4D6) (human, UniProt P08887); assay: FMAT competition; competitor Reference IgG-A647; CHO cells with human IL-6R
Protocol: Eleven inhibitory Nanobodies were tested in competition with labelled Reference IgG for binding to CHO cells expressing hIL-6R or cynoIL-6R.

B1: IL6RPMP103C3 (VHH)
VHH: EVQLVESGGGLVQPGGSMRLSCAATGAIFSISTMGWYRQAPGAQREFVAGVGLDGTPNYADSVKGRFTISRDNTKNTVSLQMENLKPEDTGVYYCNIDEGMDYDGNFYDRWGQGTQVTVSS
OD450 ratio sample/blank [1]: 1.1
OD450 ratio sample/blank [2]: 2.02
OD450 ratio sample/blank [3]: 1.01

B2: IL6RPMP120G6 (VHH)
VHH: EVQLVESGGDLVQTGGSLRLSCAASGITVSDRAMGWYRQAPGKQREMVAGVSRGGMTSYADSVKGRLTISRDNAKNSVYLQMNSLNPEDTAVYYCSAYYRYGSSVPQYWGQGTQVTVSS
IC50, IL-6-dependent proliferation of TF-1 cells (3H-thymidine) (IL-6R on TF-1 cells): 10.2 nM
OD450 ratio sample/blank [1]: 0.0289
OD450 ratio sample/blank [4]: 0.236
OD450 ratio sample/blank [5]: 0.993
IC50 [6]: 0.66 nM
IC50 [7]: 1.12 nM

B3: IL6RPMP103F2 (VHH)
VHH: EVQLVESGGGLVQAGGSLRLSCVASGHTSDTYIMAWFRQAPGKEREFVASILWDGSITYYADSVKDRFTISRDISRKTLYLQMNSLRPEDTATYTCARGIYFSRRYVDPGIYGTWGQGTQVTVSS
OD450 ratio sample/blank [1]: 1.09
OD450 ratio sample/blank [2]: 1.95
OD450 ratio sample/blank [3]: 0.993

B4: IL6RPMP108E9 (VHH)
VHH: EVQLVESGGGLVQAGGSLRLSCAFSRRSFGNFPMGWFRQRPGEEREYVAVISWNNNYIHYRDSVKGRFTASRDTSENRMYLQMNGLKPEDTAVYYCAARTKDNTLFTPAEEYDYWGQGTQVTVSS
OD450 ratio sample/blank [1]: 0.961
OD450 ratio sample/blank [2]: 0.731
OD450 ratio sample/blank [3]: 0.989

B5: IL6RPMP108C9 (VHH)
VHH: EVQLVESGGGLVQAGGSLRLSCAASGRTYAMAWFRQAPGKEREFVAAISIVTDYADSVKGRFNISRDNRENTVYLQMNSLKPEDTAVYYCAANTYYSGAYFPRGHEWYEYWGQGTQVTVSS
OD450 ratio sample/blank [1]: 0.907
OD450 ratio sample/blank [2]: 0.911
OD450 ratio sample/blank [3]: 1.01

B6: IL6RPMP105E1 (VHH)
VHH: EVQLVESGGGLVQAGGSLRLSCAASGSIFSIKAMGWYRQAPGKQRELVARITSGGSTYYADSVKGRFTISRDNAKNTVYLQMNSLKPEDTAVFYCNAIVTDSDYDLGNDYWGQGTQVTVSS
IC50, IL-6-dependent proliferation of TF-1 cells (3H-thymidine) (IL-6R on TF-1 cells): 6.2 nM
OD450 ratio sample/blank [1]: 0.0402
OD450 ratio sample/blank [4]: 0.21
OD450 ratio sample/blank [5]: 0.995
IC50 [8]: 13 nM
IC50 [6]: 0.62 nM
IC50 [7]: 0.58 nM
IC50 [9]: > 100 nM

B7: IL6RPMP103H9 (VHH)
VHH: EVQLVESGGGLVQPGGSLRLSCAASKSIFDINAMYWHRQAPGKQRESVASITSGGMRNYADSVKDRFTISKDNAKNTVYLQMNGLKPDDTAVYYCGLGRYEGGVWRDYWGQGTQVTVSS
IC50, IL-6-dependent proliferation of TF-1 cells (3H-thymidine) (IL-6R on TF-1 cells): 1470 nM
OD450 ratio sample/blank [1]: 0.263
OD450 ratio sample/blank [4]: 1.59
OD450 ratio sample/blank [5]: 0.99
IC50 [6]: 14.8 nM
IC50 [7]: 37.9 nM
IC50 [9]: > 50 nM

B8: IL6RPMP103C4 (VHH)
VHH: EVQLVESGGGLVEAGGSLRLSCAAAGRTLSSYSMAWFRQAPGKEREFVAIIRGNPSRTYHSDSVKGRFTASRDNAKNTVYLQMNRLEPEDTAVYYCAADPPPFASDYSAPQSYDYWGQGTQVTVSS
IC50, IL-6-dependent proliferation of TF-1 cells (3H-thymidine) (IL-6R on TF-1 cells): 15.6 nM
OD450 ratio sample/blank [1]: 0.0819
OD450 ratio sample/blank [4]: 0.959
OD450 ratio sample/blank [5]: 1
IC50 [8]: 30 nM
IC50 [6]: 2.7 nM
IC50 [7]: 1.73 nM
IC50 [9]: 37 nM

B9: IL6RPMP120A5 (VHH)
VHH: EVQLVESGGGLVQAGGSLSLSCATSGRTISDDTMAWFRQAPGKEREFVAIITFNGARTHYSDSVRDRFTISRDNAKNTVYLQMNSLKSEDTAVYYCAASTKYYSSTYNYIHPAFYDIWGQGTQVTVSS
IC50, IL-6-dependent proliferation of TF-1 cells (3H-thymidine) (IL-6R on TF-1 cells): 5.59 nM
OD450 ratio sample/blank [1]: 0.031
OD450 ratio sample/blank [4]: 0.138
OD450 ratio sample/blank [5]: 0.988
IC50 [8]: 27 nM
IC50 [6]: 0.55 nM
IC50 [7]: 0.47 nM
IC50 [9]: 63 nM

B10: IL6RPMP103C7 (VHH)
VHH: B9 VHH with I50T, N54S, N84D
IC50, IL-6-dependent proliferation of TF-1 cells (3H-thymidine) (IL-6R on TF-1 cells): 61.3 nM
OD450 ratio sample/blank [1]: 0.175
OD450 ratio sample/blank [4]: 0.413
OD450 ratio sample/blank [5]: 0.948
IC50 [8]: 75 nM
IC50 [6]: 13.7 nM
IC50 [7]: 6.9 nM
IC50 [9]: > 100 nM

B11: Reference Fab (Fab, V domains shown)
VH: QVQLQESGPGLVRPSQTLSLTCTVSGYSITSDHAWSWVRQPPGRGLEWIGYISYSGITTYNPSLKSRVTMLRDTSKNQFSLRLSSVTAADTAVYYCARSLARTTAMDYWGQGSLVTVSS
VL: DIQMTQSPSSLSASVGDRVTITCRASQDISSYLNWYQQKPGKAPKLLIYYTSRLHSGVPSRFSGSGSGTDFTFTISSLQPEDIATYYCQQGNTLPYTFGQGTKVEIKR
IC50 [9]: 3.4 nM
